Here are results for 4 molecules from patent US20200207874A1 (Hoffmann-La Roche, published 2020).

“And” between values parts separate entries of the source, which are not always exact repeats. Identical values can stand only once.

Assay [1] addresses T1, streptavidin (SA) (UniProt P22629 37-163, limits assumed).
T1 construct: Injected at 250 nM as effector moiety to probe the biotin of the 75mer ss-L-DNA linker
As to the kind of experiment: SPR (BIAcore 3000), streptavidin injected over 2C4-FAB'-ss-L-DNA bound to captured huFc chimera HER2 ECD. The text has this:
The BIAcore assay setup comprised the following (see also FIG. 6): A polyclonal goat anti human IgG-Fc gamma antibody was immobilized on the BIAcore CM5 sensor and serves as a capture system for the huFc chimera HER2 ECD.
The FAB fragments have a calculated molecular weight of 57 kDa, each. […] Streptavidin is the effector moiety.
Background: Surface plasmon resonance follows binding to a sensor surface in real time, without labels.

The target in assay [2] is T2, IGF-1R(1340-1366)amid (C-terminal amide).
T2 construct: also called IGF-1R peptide (free in solution); non-phosphorylated IGF-1R peptide
T2 peptide: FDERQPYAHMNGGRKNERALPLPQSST
The assay can be described thus: SPR (BIAcore 3000, SA sensor, 25 C): ss-FABs hybridized on the biotinylated T40-Bi 77-mer ss-DNA linker on the surface; peptide as analyte in solution. The method, then:
(§1) A BIAcore 3000 instrument (GE Healthcare) was used with a BIAcore SA sensor mounted into the system at T=25° C. The system was preconditioned at 100 μl/min with 3×1 min injection of 1 M NaCl in 50 mM NaOH and 1 min 10 mM HCl.
(§2) 124 RU amino-PEO-biotin were captured on the reference flow cell 1. […] As a control, buffer was injected instead of the ss-Fabs.
(§3) The dissociation was monitored at 50 μl/min for 5.3 min. The system was regenerated after each concentration step with a 12 sec pulse of 250 mM NaOH and was reloaded with ss-FAB ligand.

Assay [3] concerns the target T3, IGF-1R(1340-1366)[1346-pTyr]amid (phosphotyrosine at 1346; C-terminal amide).
T3 construct: also called pIGF-1R peptide (free in solution); phosphorylated IGF-1R peptide
T3 peptide: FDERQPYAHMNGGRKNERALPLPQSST
The description is as above. As to the method:
as §1, §2, §3

For assay [4], the target named is T3, IGF-1R(1340-1366)[1346-pTyr]amid. As to the kind of experiment: SPR (BIAcore 3000), complex on SA sensor, peptide in solution. The method, then: as §1, §2, §3
For assay [5], the target named is T2, IGF-1R(1340-1366)amid. As to the kind of experiment: SPR (BIAcore 3000, SA sensor, 25 C): single ss-FAB hybridized on the biotinylated T0-Bi 37-mer ss-DNA linker on the surface; peptide as analyte in solution. The method, then: as §1, §2, §3
Assay [6] deals with T3, IGF-1R(1340-1366)[1346-pTyr]amid. The description is as above. As to the method:
as §1, §2, §3

Assay [7] addresses T4, hInsR(1355-1382)[1361-pTyr; Glu(Bi-PEG-1355]amid (human, not fully specified; phosphotyrosine at 1361; PEG linker with biotin on the glutamic acid at position 1355; C-terminal amide).
T4 construct: also called pIR peptide; IR (phosphorylated insulin receptor) peptide (biotinylated)
T4 peptide: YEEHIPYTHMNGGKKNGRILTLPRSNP
The assay can be described thus: SPR (BIAcore 2000), biotinylated peptide on SA sensor.

In assay [8] the target is T2, IGF-1R(1340-1366)amid. The assay can be described thus: SPR (BIAcore 3000, SA sensor, 25 C): single ss-FAB hybridized on the biotinylated T40-Bi 77-mer ss-DNA linker on the surface; peptide as analyte in solution. As to the method: as §1, §2, §3
Assay [9] addresses T5, INR(1355-1382)[1361-pTyr]amid (human, phosphotyrosine at 1361; C-terminal amide).
T5 construct: also called pINR peptide; phosphorylated insulin receptor peptide (free in solution)
T5 peptide: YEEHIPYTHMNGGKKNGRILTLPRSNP
The description is as above. As to the method: as §1, §2, §3

Assay [10] addresses T3, IGF-1R(1340-1366)[1346-pTyr]amid. Described as above. As to the method: as §1, §2, §3
Assay [11] addresses T6, IGF-1R(1340-1366)[1346-pTyr; Glu(Bi-PEG-1340]amid (not fully specified; phosphotyrosine at 1346; PEG linker with biotin on the glutamic acid at position 1340; C-terminal amide).
T6 construct: also called pIGF-1R peptide (biotinylated); phosphorylated IGF-1R peptide
T6 peptide: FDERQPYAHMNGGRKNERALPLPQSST
The assay can be described thus: SPR (BIAcore 2000), biotinylated peptide on SA sensor, 100 nM analyte.

Assay [12] has as its target T7, IGF-1R(1340-1366); Glu(Bi-PEG-1340]amid (not fully specified; PEG linker with biotin on the glutamic acid at position 1340; C-terminal amide).
T7 construct: also called IGF-1R peptide (biotinylated, non-phosphorylated)
T7 peptide: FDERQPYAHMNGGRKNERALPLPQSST
The description is as above.

In assay [13] the target is T2, IGF-1R(1340-1366)amid. As to the kind of experiment: SPR (BIAcore 3000, SA sensor, 25 C): ss-FABs hybridized on the biotinylated T0-Bi 37-mer ss-DNA linker on the surface; peptide as analyte in solution. As to the method: as §1, §2, §3
The target in assay [14] is T3, IGF-1R(1340-1366)[1346-pTyr]amid. The description is as above. The method, then: as §1, §2, §3

T1 sequence (P22629 37-163 limits assumed): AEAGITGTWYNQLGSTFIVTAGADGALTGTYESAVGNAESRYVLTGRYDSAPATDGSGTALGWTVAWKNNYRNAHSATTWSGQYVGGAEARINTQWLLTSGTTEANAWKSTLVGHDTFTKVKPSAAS

B1: anti-HER2 antibody 2C4-FAB′-ss-L-DNA (Fab, V domains shown)
VH: EVQLVESGGGLVQPGGSLRLSCAASGFTFTDYTMDWVRQAPGKGLEWVADVNPNSGGSIYNQRFKGRFTLSVDRSKNTLYLQMNSLRAEDTAVYYCARNLGPSFYFDYWGQGTLVTVSS
VL: DIQMTQSPSSLSASVGDRVTITCKASQDVSIGVAWYQQKPGKAPKLLIYSASYRYTGVPSRFSGSGSGTDFTLTISSLQPEDFATYYCQQYYIYPYTFGQGTKVEIKQ
modifications: cysteine of the FAB′ hinge region linked via maleimide to fluorescein-labeled ss-L-DNA oligonucleotide
notes: FAB′ of 2C4 (Pertuzumab); also called 2C4-ss-L-DNA; 2C4-75mer
On to B1, for which the binding result in assay [1] is reported as “no binding (tested: 250 nM)”.

B2: T40 dual binding agent: ss-FAB 8.1.2 and ss-FAB 1.4.168 on the biotinylated T40-Bi 77-mer ss-DNA linker (linker 10) (bispecific antibody, V domains shown)
VH 1: EVQLQQSGPALVKPGASVKMSCKASGFTFTSYVIHWVKQKPGQGLEWIGYLNPYNDNTKYNEKFKGKATLTSDRSSSTVYMEFSSLTSEDSAVYFCARRGIYAYDHYFDYWGQGTSLTVSS
VL 1: QIVLTQSPAIMSASPGEKVTLTCSASSSVNYMYWYQQKPGSSPRLLIYDTSNLASGVPVRFSGSGSVTSYSLTISRMEAEDAATYYCQQWSTYPLTFGAGTKLELK
VH 2: QCDVKLVESGGGLVKPGGSLKLSCAASGFTFSDYPMSWVRQTPEKRLEWVATITTGGTYTYYPDSIKGRFTISRDNAKNTLYLQMGSLQSEDAAMYYCTRVKTDLWWGLAYWGQGTLVTVSA
VL 2: QLVLTQSSSASFSLGASAKLTCTLSSQHSTYTIEWYQQQPLKPPKYVMELKKDGSHTTGDGIPDRFSGSSSGADRYLSISNIQPEDESIYICGVGDTIKEQFVYVFGGGTKVTVLG
modifications: FAB′ hinge cysteine linked to ss-DNA
notes: Assembled on the SA sensor surface; also called T40-bi complex
One may read the Kd as the free concentration of one partner at which half of the binding sites on the other are occupied at equilibrium, for simple one-to-one binding. A higher Kd goes with a looser complex. On to B2, for which the Kd was 0.973 nM and 1 nM in [2]; 0.0125 nM in assay [3]; 0.01 nM in [4]. Further, the t1/2 diss in assay [2] is 4.3 min.

B3: ss-FAB′ 1.4.168 (Fab, V domains shown)
VH: DVKLVESGGGLVKPGGSLKLSCAASGFTFSDYPMSWVRQTPEKRLEWVATITTGGTYTYYPDSIKGRFTISRDNAKNTLYLQMGSLQSEDAAMYYCTRVKTDLWWGLAYWGQGTLVTVSA
VL: QLVLTQSSSASFSLGASAKLTCTLSSQHSTYTIEWYQQQPLKPPKYVMELKKDGSHTTGDGIPDRFSGSSSGADRYLSISNIQPEDESIYICGVGDTIKEQFVYVFGGGTKVTVLG
modifications: cysteine of the FAB′ hinge region linked to 17mer ss-DNA comprising SEQ ID NO: 05 with fluorescein
notes: FAB′ from pepsin cleavage of murine mAb 1.4.168; also called ss-FAB 1.004.168; fluorescein-ss-FAB′ 1.4.168
A word on the koff: it is a measure of how fast the partners let go of each other. What is called kon is the second-order rate constant of association. Lower therefore signals slow association. Consider B3, for which the Kd in [5] is 1.35 nM and 1 nM; in [6] it was 2.59 nM and 3 nM; in assay [8], 1.1 nM and 1 nM; in assay [10] it was 2.14 nM and 2 nM. Further, the koff in assay [5] worked out at 0.00326 s⁻¹; in assay [6] it was 0.00291 s⁻¹; in assay [8], 0.00362 s⁻¹; in [10] it was 0.00419 s⁻¹. Also, the kon in assay [5] is 2.41e+06 M⁻¹ s⁻¹; in [6], 1.12e+06 M⁻¹ s⁻¹; in assay [8], 3.3e+06 M⁻¹ s⁻¹; in assay [10], 1.96e+06 M⁻¹ s⁻¹. The figures for the t1/2 diss in assay [5], in assay [6] and in assay [8] were 4 min, 4 min and 3 min, respectively. The binding result in [7] was “no binding (tested: 100 nM)”; in [9] it was “no binding (tested: 300 nM (highest peptide step))”. For the same molecule, the T1/2 dis in [11] and in assay [12] was 3 min each time.

B4: T0 dual binding agent: ss-FAB 8.1.2 and ss-FAB 1.4.168 on the biotinylated T0-Bi 37-mer ss-DNA linker (linker 17) (bispecific antibody, V domains shown)
VH 1: EVQLQQSGPALVKPGASVKMSCKASGFTFTSYVIHWVKQKPGQGLEWIGYLNPYNDNTKYNEKFKGKATLTSDRSSSTVYMEFSSLTSEDSAVYFCARRGIYAYDHYFDYWGQGTSLTVSS
VL 1: QIVLTQSPAIMSASPGEKVTLTCSASSSVNYMYWYQQKPGSSPRLLIYDTSNLASGVPVRFSGSGSVTSYSLTISRMEAEDAATYYCQQWSTYPLTFGAGTKLELK
VH 2: QCDVKLVESGGGLVKPGGSLKLSCAASGFTFSDYPMSWVRQTPEKRLEWVATITTGGTYTYYPDSIKGRFTISRDNAKNTLYLQMGSLQSEDAAMYYCTRVKTDLWWGLAYWGQGTLVTVSA
VL 2: QLVLTQSSSASFSLGASAKLTCTLSSQHSTYTIEWYQQQPLKPPKYVMELKKDGSHTTGDGIPDRFSGSSSGADRYLSISNIQPEDESIYICGVGDTIKEQFVYVFGGGTKVTVLG
modifications: FAB′ hinge cysteine linked to ss-DNA
For the molecule B4, the Kd in assay [13] was 1.2 nM and 1 nM; in assay [14], 0.0344 nM; in assay [4], 0.03 nM. In assay [13], this molecule had a t1/2 diss of 5 min.
